Measurements published in patent US20230303660A1 (published 2023).
Several values for one entry are separate records, joined by “and”; a condition that tells them apart may be missing. Equal entries are not always repeated.

B1: s4-1BBL (ligand)
chain: GSGSNWSHPQFEKGGSGGHHHHHHGGSGGGSLDLRQGMFAQLVAQNVLLIDGPLSWYSDPGLAGVSLTGGLSYKEDTKELVVAKAGVYYVFFQLELRRVVAGEGSGSVSLALHLQPLRSAAGAAALALTVDLPPASSEARNSAFGFQGRLLHLSAGQRLGVHLHTEARARHAWQLTQGATVLGLFRVTPEIPAGLPSPRSE
notes: HEK293T supernatant; also called soluble 4-1BBL
B2: s4-1BBL-TriXVIII^LL (ligand)
chain: GSGSNWSHPQFEKGGSGGHHHHHHGGSGGTRSGAGGSGGSSGSDGASGSGVRLWATRQAMLGQVHEVPEGWLIFVAEQEELYVRVQNGFRKVQLEARTPLPRGTDNEGSLDLRQGMFAQLVAQNVLLIDGPLSWYSDPGLAGVSLTGGLSYKEDTKELVVAKAGVYYVFFQLELRRVVAGEGSGSVSLALHLQPLRSAAGAAALALTVDLPPASSEARNSAFGFQGRLLHLSAGQRLGVHLHTEARARHAWQLTQGATVLGLFRVTPEIPAGLPSPRSE
B3: s4-1BBL-TNC (ligand)
chain: GSGSNWSHPQFEKGGSGGHHHHHHGGSGGTRACGCAAAPDIKDLLSRLEELEGLVSSLREQGSLDLRQGMFAQLVAQNVLLIDGPLSWYSDPGLAGVSLTGGLSYKEDTKELVVAKAGVYYVFFQLELRRVVAGEGSGSVSLALHLQPLRSAAGAAALALTVDLPPASSEARNSAFGFQGRLLHLSAGQRLGVHLHTEARARHAWQLTQGATVLGLFRVTPEIPAGLPSPRSE
notes: HEK293T supernatant; The entry may include the CD5 leader; also called comparison 3
B4: murine (m)s4-1BBL-TriXVIII (ligand)
chain: GVRLWATRQAMLGQVHEVPEGWLIFVAEQEELYVRVQNGFRKVQLEARTPLPRGTDNEGSRTEPRPALTITTSPNLGTRENNADQVTPVSHIGCPNTTQQGSPVFAKLLAKNQASLCNTTLNWHSQDGAGSSYLSQGLRYEEDKKELVVDSPGLYYVFLELKLSPTFTNTGHKVQGWVSLVLQAKPQVDDFDNLALTVELFPCSMENKLVDRSWSQLLLLKAGHRLSVGLRAYLHGAQDAYRDWELSYPNTTSFGLFLVKPDNPWE
B5: s4-1BBL-TriXVIII (ligand)
chain: GSGSNWSHPQFEKGGSGGHHHHHHGGSGGGVRLWATRQAMLGQVHEVPEGWLIFVAEQEELYVRVQNGFRKVQLEARTPLPRGTDNEGSLDLRQGMFAQLVAQNVLLIDGPLSWYSDPGLAGVSLTGGLSYKEDTKELVVAKAGVYYVFFQLELRRVVAGEGSGSVSLALHLQPLRSAAGAAALALTVDLPPASSEARNSAFGFQGRLLHLSAGQRLGVHLHTEARARHAWQLTQGATVLGLFRVTPEIPAGLPSPRSE
notes: HEK293T supernatant; The entry may include the CD5 leader; also called 54-1BBL-TriXVIII; human s4-1BBL-TriXVIII
B6: Triple-s4-1BBL (ligand)
chain: GSGSNWSHPQFEKGGSGGHHHHHHGGSGGGSLDLRQGMFAQLVAQNVLLIDGPLSWYSDPGLAGVSLTGGLSYKEDTKELVVAKAGVYYVFFQLELRRVVAGEGSGSVSLALHLQPLRSAAGAAALALTVDLPPASSEARNSAFGFQGRLLHLSAGQRLGVHLHTEARARHAWQLTQGATVLGLFRVTPEIPAGLPSPRSEGGGGSGGGGSGGGGSLDLRQGMFAQLVAQNVLLIDGPLSWYSDPGLAGVSLTGGLSYKEDTKELVVAKAGVYYVFFQLELRRVVAGEGSGSVSLALHLQPLRSAAGAAALALTVDLPPASSEARNSAFGFQGRLLHLSAGQRLGVHLHTEARARHAWQLTQGATVLGLFRVTPEIPAGLPSPRSEGGGGSGGGGSGGGGSLDLRQGMFAQLVAQNVLLIDGPLSWYSDPGLAGVSLTGGLSYKEDTKELVVAKAGVYYVFFQLELRRVVAGEGSGSVSLALHLQPLRSAAGAAALALTVDLPPASSEARNSAFGFQGRLLHLSAGQRLGVHLHTEARARHAWQLTQGATVLGLFRVTPEIPAGLPSPRSE
notes: HEK293T supernatant; Single chain carrying three ectodomains; The entry may include the leader
B7: s4-1BBLsh-TriXVIII (ligand)
chain: GSGSNWSHPQFEKGGSGGHHHHHHGGSGGGVRLWATRQAMLGQVHEVPEGWLIFVAEQEELYVRVQNGFRKVQLEARTPLPRGTDNEGSGMFAQLVAQNVLLIDGPLSWYSDPGLAGVSLTGGLSYKEDTKELVVAKAGVYYVFFQLELRRVVAGEGSGSVSLALHLQPLRSAAGAAALALTVDLPPASSEARNSAFGFQGRLLHLSAGQRLGVHLHTEARARHAWQLTQGATVLGLFRVTP
notes: HEK293T supernatant, used without purification; The entry may include the CD5 leader; also called 54-1BBLsh-TriXVIII; s4-1BBL-short (sh) minimal polypeptide

Assays:
human 4-1BB [1] = biological target: T1, human 4-1BB (human, UniProt Q07011 24-255); assay: cell-based or functional assay
human 4-1BB [2] = biological target: T1, human 4-1BB; assay: flow cytometry; dilution series of HEK293T supernatant on Jurkat TPR cells expressing human 4-1BB
Excerpt: For testing the resulting supernatants, a Triple parameter reporter cell line (TPR) based on the human Jurkat JE6-1 T cell line was used (Jutz et al., 2016). This cell line harbors fluorescent reporter polypeptides to concomitantly assess the activity of three transcription factors, which play major roles during T cell activation: NF-κB::eCFP; NFAT::eGFP and AP-1::mCherry. The TPR reporter cells were transduced to stably express human 4-1BB. For the binding assays, 1×10⁵ 4-1 BB expressing cells in a volume of 10 μl were incubated with 50 μl of the supernatants containing the products according to Table 1. […] After an incubation time of 30 min at 4° C., the samples are washed in FACS-Buffer (1×PBS, 0.5% FCS, 0.005% NaN₃) and stained with a biotinylated Strep-tag II mAb (GenScript, NJ) via adding 5 μl of a 1:150 dilution to each sample and incubation for 20 min on 4° C. Afterwards, samples were washed again and incubated for another 20 min on 4° C. upon adding 5 μl of a 1:200 dilution of Streptavidin-PE (BD Pharmingen, San Diego, CA) to each sample. At last, samples were washed again and subsequently measured via flow cytometry, which was performed on a FACSCalibur flow cytometer (Becton Dickinson Immunocytometry System, San Jose, CA), using the CellQuest software. Data was analyzed with FlowJo (version 10.0.7, Tree Star, Ashland, OR) and Graphpad Prism (version 6, GraphPad Software, Inc., La Jolla, CA).

murine 4-1BB = murine 4-1BB (murine, UniProt P20334 24-256); assay: cell-based or functional assay
Sequence of murine 4-1BB (P20334 24-256): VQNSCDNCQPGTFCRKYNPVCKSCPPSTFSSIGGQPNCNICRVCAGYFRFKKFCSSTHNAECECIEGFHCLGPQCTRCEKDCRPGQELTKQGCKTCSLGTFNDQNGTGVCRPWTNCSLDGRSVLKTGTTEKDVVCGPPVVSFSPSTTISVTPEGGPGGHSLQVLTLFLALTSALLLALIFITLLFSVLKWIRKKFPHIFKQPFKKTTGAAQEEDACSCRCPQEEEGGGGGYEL

T1 sequence (Q07011 24-255): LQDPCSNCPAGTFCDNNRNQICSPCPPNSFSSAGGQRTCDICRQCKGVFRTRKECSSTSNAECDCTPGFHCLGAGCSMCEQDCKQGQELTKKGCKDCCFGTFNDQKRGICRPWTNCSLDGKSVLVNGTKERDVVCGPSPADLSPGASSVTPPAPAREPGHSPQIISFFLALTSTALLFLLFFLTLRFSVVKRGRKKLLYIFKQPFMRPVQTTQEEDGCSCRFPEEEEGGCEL

| Binder | NF-κB activation measured through eCFP expression (fold induction) (human 4-1BB [1]) | supernatant dilution at which binding is still detectable (human 4-1BB [2]) | NF-κB activation measured through eCFP expression (fold induction) (murine 4-1BB) |
| --- | --- | --- | --- |
| B1 | 8 final supernatant dilution (1:x) | 1600 supernatant dilution (1:x) | – |
| B2 | 64 final supernatant dilution (1:x) and 8 supernatant dilution (1:x) | – | – |
| B3 | ~50 % of effect lost at a dilution of 1:8 | 128 supernatant dilution (1:x) | – |
| B4 | – | – | 15600 final supernatant dilution (1:x) and 500 supernatant dilution (1/x) |
| B5 | – | 4096 supernatant dilution (1:x) | – |
| B6 | – | 4096 supernatant dilution (1:x) | – |
| B7 | – | 2080 supernatant dilution (1:x) | – |
